Test results taken from doi:10.1101/2020.07.09.195057 (bioRxiv, 2020).

T1: Dcp1/Dcp2core (Schizosaccharomyces pombe, UniProt Q9P805;O13828 1-127;1-243)
T1 sequence 1: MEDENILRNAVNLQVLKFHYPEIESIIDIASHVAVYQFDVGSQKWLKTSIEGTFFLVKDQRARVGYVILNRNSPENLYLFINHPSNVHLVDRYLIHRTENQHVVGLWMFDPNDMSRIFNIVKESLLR
T1 sequence 2: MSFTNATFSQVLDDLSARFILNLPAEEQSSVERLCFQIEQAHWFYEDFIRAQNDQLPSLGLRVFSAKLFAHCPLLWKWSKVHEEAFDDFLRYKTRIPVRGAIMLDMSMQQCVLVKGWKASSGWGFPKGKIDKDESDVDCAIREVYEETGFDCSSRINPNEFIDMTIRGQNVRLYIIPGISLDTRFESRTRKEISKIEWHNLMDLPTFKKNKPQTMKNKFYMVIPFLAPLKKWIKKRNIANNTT

T2: Dcp1(1-127) (S. pombe, UniProt Q9P805 1-127, perdeuterated background, 1H/13C-labelled ILVMA terminal methyl groups)
T2 sequence (looked up): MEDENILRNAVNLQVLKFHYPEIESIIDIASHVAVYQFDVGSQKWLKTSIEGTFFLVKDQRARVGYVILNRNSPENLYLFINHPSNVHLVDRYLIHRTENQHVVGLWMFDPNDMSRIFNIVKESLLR


Columns and labels:
Dcp1/Dcp2core = biological target: T1, Dcp1/Dcp2core; experiment: fluorescence polarization
Dcp1(1-127) = biological target: T2, Dcp1(1-127); experiment: co-purification

binding result (Dcp1(1-127))	Binder	binding result (Dcp1/Dcp2core)
	UUUUUUUUUUUUUUUUUUUUUUUUUUUUUU (ssRNA, 5' phosphate) [30U RNA]	binds
binds	Dcp2(1-504)_(eSrtA), sortase-ligated Dcp2ext with C-terminal StrepII (domain or fragment, S. pombe, residues 1-266 perdeuterated with 1H/13C-labelled ILVMA terminal methyl groups; 274-504 unlabelled) MSFTNATFSQVLDDLSARFILNLPAEEQSSVERLCFQIEQAHWFYEDFIRAQNDQLPSLGLRVFSAKLFAHCPLLWKWSKVHEEAFDDFLRYKTRIPVRGAIMLDMSMQQCVLVKGWKASSGWGFPKGKIDKDESDVDCAIREVYEETGFDCSSRINPNEFIDMTIRGQNVRLYIIPGISLDTRFESRTRKEISKIEWHNLMDLPTFKKNKPQTMKNKFYMVIPFLAPLKKWIKKRNIANNTTKEKNISVDVDADASSQLLSLLKSLPETGGGATPQPSTFPQPPVESHSSFDIKQKILHLLNEGNEPKSPIQLPPVSNLPLNPPIQSSNSRLSHDNNSFDPFAYLGLDPKNPSASFPRVVSQNNMLTNKPVLNNHFQQSMYSNLLKDQNSVQHLFAASDMPSPMELPSPSTVYHQVFYPPTSTSVSSYGLGKTPQPAYGSSSPYVNGHQTQQISSLPPFQSQTQFLARNSDNSGQSYNSEGDSNSKRLLSMLSQQDTTPSSST	
